Source: paper PMC4380455 (PLoS ONE, 2015)

B2: TM1088B (natural protein, T. maritima, UniProt D3KFX8 1-218, looked up)
chain: MKVIIIGGETTAYYLARSMLSRKYGVVIINKDRELCEEFAKKLKATIIHGDGSHKEILRDAEVSKNDVVVILTPRDEVNLFIAQLVMKDFGVKRVVSLVNDPGNMEIFKKMGITTVLNLTTLITNTVEALIFPDEFSSIIPLEQGIEFLSVNVEEDSPVVGKKLKDLPLPRDSIIAAIVRGGVLVVPRGDTEILSGDKLYVIVSAEAKETVEETLLGR
notes: TM1088B of Thermotoga maritima MSB8 (DSM3109), full length, residues 1-218, 24.0 kDa; UniProt D3KFX8_THEMA; also called N1 and C1 domains

Legend:
[1] = molecular target: T1, TM1088A (Thermotoga maritima, UniProt D3KFX7); test: X-ray crystal structure, […] Å; format: binding; details: AMP co-purified from E. coli host, not added; nucleotide site GXGXXG (Gly14/Gly16/Gly19), Arg17, Ala59, Arg105; crystallised pH 6.5
T1 construct: gene TM1088

[2] = molecular target: the molecule itself; test: crystal structure; TM1088A alone, 1.50 Å, PDB 2G1U; one molecule in the asymmetric unit, dimer formed in the crystal lattice; 40% MPD, 5% PEG-8000, 0.1 M cacodylate pH 6.5, 293 K
[3] = molecular target: B2; test: crystal structure; TM1088A:TM1088B octameric assembly (4 TM1088A, 4 TM1088B, 4 AMP in the asymmetric unit), 3.45 Å, PDB 3L4B; complex at 3 mg/ml with NADH added 1.1:1.0; 0.1 M magnesium chloride, 15% PEG 4000, 0.1 M HEPES pH 7.0; details: both partners purified
[4] = molecular target: the molecule itself; test: as above
[5] = molecular target: the molecule itself; test: crystal structure; TM1088B C-terminal domain (140-218) alone, tag intact, 1.55 Å, PDB 3JXO; two chains in the asymmetric unit; 25% ethylene glycol, 293 K

Q: Which “X-ray crystal structure, 1.50 Å” value [1] does the source give for Nc1ncnc2c1ncn2[C@@H]1O[C@H](COP(=O)(O)O)[C@@H](O)[C@H]1O [AMP] here?
A: Its value is “AMP was co-purified with TM1088A and appears in both the high-resolution TM1088A structure”.

B1: TM1088A (natural protein, T. maritima, UniProt D3KFX7 1-143, looked up)
chain: MSKKQKSKYIVIFGCGRLGSLIANLASSSGHSVVVVDKNEYAFHRLNSEFSGFTVVGDAAEFETLKECGMEKADMVFAFTNDDSTNFFISMNARYMFNVENVIARVYDPEKIKIFEENGIKTICPAVLMIEKVKEFIIGSEED
notes: TM1088A of Thermotoga maritima MSB8 (DSM3109), full length, residues 1-143, 16.0 kDa; UniProt D3KFX7_THEMA; first open reading frame of the TM1088 locus; The same construct was purified alone (2G1U) and in complex with untagged TM1088B (3L4B) from one plasmid by different purification schemes; AMP co-purified with it; Tag residues are numbered Met(-11) to 0; also called TM_1087.1; N2 domain; …
Q: Which results are given for B1?
A: stoichiometry N [2]: 2; binding result [3]: binds

Q: B2 was tested. Which “stoichiometry N” value [4] did it give?
A: The value was 2.

B3: TM1088B C-terminal domain (domain or fragment, T. maritima, UniProt D3KFX8 140-218, looked up)
chain: IPLEQGIEFLSVNVEEDSPVVGKKLKDLPLPRDSIIAAIVRGGVLVVPRGDTEILSGDKLYVIVSAEAKETVEETLLGR
notes: TM1088B of Thermotoga maritima MSB8 (DSM3109), C-terminal domain, residues 140-218; UniProt D3KFX8_THEMA; Crystallised with the tag intact; also called TM1088B (residues 140-218); C1 domain; source: E. coli HK100, plasmid pSpeedET-TM1088B, purified (Ni-NTA agarose)
Q: Which “stoichiometry N” value [5] does the source give for B3 here?
A: The value was 2.
